T1: human CD98 ECD (Homo sapiens, UniProt P08195)
T1 construct: Human CD98 ECD with C-terminal His-tag
T1 sequence (P08195 with tags, fused parts or gaps): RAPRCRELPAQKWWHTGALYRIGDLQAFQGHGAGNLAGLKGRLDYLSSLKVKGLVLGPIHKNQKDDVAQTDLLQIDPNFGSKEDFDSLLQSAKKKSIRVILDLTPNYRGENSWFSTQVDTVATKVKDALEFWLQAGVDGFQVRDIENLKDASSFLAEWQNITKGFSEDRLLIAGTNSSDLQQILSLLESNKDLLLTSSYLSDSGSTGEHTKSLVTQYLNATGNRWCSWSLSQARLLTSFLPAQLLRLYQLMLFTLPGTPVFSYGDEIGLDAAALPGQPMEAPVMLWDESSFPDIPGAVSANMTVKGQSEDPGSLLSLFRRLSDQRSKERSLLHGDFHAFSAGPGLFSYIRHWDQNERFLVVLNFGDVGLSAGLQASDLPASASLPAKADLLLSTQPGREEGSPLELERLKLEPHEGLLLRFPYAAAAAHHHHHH

T2: human CD98 (Homo sapiens, UniProt P08195)
T2 sequence (P08195 1-630 isoform P08195-1): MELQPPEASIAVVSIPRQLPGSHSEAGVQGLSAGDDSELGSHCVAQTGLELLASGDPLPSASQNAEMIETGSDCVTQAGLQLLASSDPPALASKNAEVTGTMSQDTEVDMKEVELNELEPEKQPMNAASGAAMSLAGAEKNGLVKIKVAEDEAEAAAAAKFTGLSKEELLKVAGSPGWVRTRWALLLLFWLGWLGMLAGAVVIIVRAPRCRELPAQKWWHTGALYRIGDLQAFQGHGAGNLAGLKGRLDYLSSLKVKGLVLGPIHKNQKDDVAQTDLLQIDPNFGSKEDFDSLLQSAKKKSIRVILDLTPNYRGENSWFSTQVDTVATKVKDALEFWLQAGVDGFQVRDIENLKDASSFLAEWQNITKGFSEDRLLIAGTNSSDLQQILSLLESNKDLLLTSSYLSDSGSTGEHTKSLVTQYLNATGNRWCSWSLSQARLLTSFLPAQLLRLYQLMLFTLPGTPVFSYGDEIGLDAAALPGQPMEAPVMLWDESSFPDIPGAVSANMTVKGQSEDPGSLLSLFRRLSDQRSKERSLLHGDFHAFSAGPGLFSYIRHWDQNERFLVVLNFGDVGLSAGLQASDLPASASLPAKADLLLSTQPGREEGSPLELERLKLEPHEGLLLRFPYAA


Columns and labels:
human CD98 ECD = target: T1, human CD98 ECD; assay: Biacore surface plasmon resonance binding kinetics (anti-Fc capture); settings: huCD98 ECD
Description: (§1) The binding kinetics of these purified mouse and rat monoclonal anti-CD98 antibodies for purified recombinant CD98 protein (extracellular domain, ECD) were determined by surface plasmon resonance-based measurements made on Biacore T100/T200 instruments (GE Healthcare, Piscataway, N.J.) at 25° C. using an anti-Fc capture assay approach. Binding kinetic measurements were made in the assay buffer HBS-EP+: 10 mM Hepes, pH 7.4, 150 mM NaCl, 3 mM EDTA, 0.05% Tween 20). For example, approximately 8000 RU of anti-Fc (species specific) polyclonal antibody (Thermo Fisher Scientific Inc., Rockford, Ill.) diluted in 10 mM sodium acetate (pH 4.5) was directly immobilized across a CM5 research grade biosensor chip using a standard amine coupling kit according to manufacturer's instructions and procedures at 25 μg/ml. Unreacted moieties on the biosensor surface were blocked with ethanolamine. The test antibody to be captured as a ligand was diluted in running buffer to ˜0.5 μg/mL and injected over anti-Fc surface at a flow rate of 10 μL/min. CD98 binding and dissociation were observed under a continuous flow rate of 80 μL/min. Human and cynomolgus monkey CD98 ECDs, both with a C-terminal His-tag, are used for this study (Table 3). After each cycle the anti-Fc capture surface was regenerated using 10 mM Glycine-HCl, pH 1.5. During the assay, all measurements were referenced against the capture surface alone (i.e., with no captured test antibody) and buffer-only injections (no antigen) were used for double referencing. For kinetic analysis, rate equations derived from the 1:1 Langmuir binding model were fitted simultaneously, globally and with mass transfer term included to multiple referenced antigen binding curves using Biacore T100/T200 Evaluation software.
(§2) The in vitro binding activities of the recombinant anti-CD98 chimeric mAbs were measured against both recombinant CD98 extracellular domain proteins (ECDs) and CD98-expressing cells. Briefly, binding kinetics of anti-CD98 chimera mAbs for human and cynomolgus CD98 ECDs were determined by surface plasmon resonance-based measurements as described in Example 4. Table 10 reported the association and dissociation rate constants for CD98 binding, ka (M^−1 s^−1) and kd (s^−1), and the equilibrium dissociation constant KD (M) of the interaction between antibodies and the target antigen. Binding of anti-CD98 chimera mAbs for CD98 on cell surface was evaluated by flow cytometry against CHO-K1 cell line stably transfected to express human CD98 and 3T12 cell line stably transfected to express cynomolgus monkey CD98.
(§3) The binding kinetics of the recombinant anti-CD98 chimeric antibodies for purified recombinant CD98 protein (extracellular domain, ECD) were determined by surface plasmon resonance-based measurements, as described in the Example 4.

[1] = test system: cynomolgus monkey CD98 ECD; assay: as above; settings: cyCD98 ECD
Description: as §1, §2, §3

human CD98 = target: T2, human CD98; assay: Binding of humanized antibodies to human CD98; settings: humanized variants of chAb3 and chAb15
[2] = Conjugation of anti-CD98 mAbs with Bcl-xL inhibitor synthons (precipitation, DAR, recovery, aggregation); settings: mAb conjugated with Bcl-xL inhibitor synthon CZ, Method A
Description: Method A. A solution of BOND-BREAKER tris(2-carboxyethyl)phosphine (TCEP) solution (10 mM, 0.017 mL) was added to a solution of antibody (10 mg/mL, […]) preheated to 37° C. The reaction mixture was kept at 37° C. for 1 hour. The solution of reduced antibody was added to a solution of synthon (3.3 mM, 0.160 mL in DMSO) and gently mixed for 30 minutes. The reaction solution was loaded onto a desalting column (PD10, washed with DPBS 3x before use), followed by DPBS (1.6 mL) and eluted with additional DPBS (3 mL). The purified ADC solution was filtered through a 0.2 micron, low protein-binding 13 mm syringe-filter and stored at 4° C.
Method E. A solution of BOND-BREAKER tris(2-carboxyethyl)phosphine (TCEP) solution (10 mM, 0.017 mL) was added to the solution of antibody (10 mg/mL, 1 mL) at room temperature. The reaction mixture was heated to 37° C. for 75 minutes. The solution of reduced antibody cooled to room temperature and was added to a solution of synthon (10 mM, 0.040 mL in DMSO) followed by addition of boric buffer (0.1 mL, 1M, pH 8). The reaction solution was let to stand for 3 days at room temperature, loaded onto a desalting column (PD10, washed with DPBS 3×5 mL before use), followed by DPBS (1.6 mL) and eluted with additional DPBS (3 mL). The purified ADC solution was filtered through a 0.2 micron, low protein-binding 13 mm syringe-filter and stored at 4° C.

Sequence of cynomolgus monkey CD98 ECD (as listed by the source): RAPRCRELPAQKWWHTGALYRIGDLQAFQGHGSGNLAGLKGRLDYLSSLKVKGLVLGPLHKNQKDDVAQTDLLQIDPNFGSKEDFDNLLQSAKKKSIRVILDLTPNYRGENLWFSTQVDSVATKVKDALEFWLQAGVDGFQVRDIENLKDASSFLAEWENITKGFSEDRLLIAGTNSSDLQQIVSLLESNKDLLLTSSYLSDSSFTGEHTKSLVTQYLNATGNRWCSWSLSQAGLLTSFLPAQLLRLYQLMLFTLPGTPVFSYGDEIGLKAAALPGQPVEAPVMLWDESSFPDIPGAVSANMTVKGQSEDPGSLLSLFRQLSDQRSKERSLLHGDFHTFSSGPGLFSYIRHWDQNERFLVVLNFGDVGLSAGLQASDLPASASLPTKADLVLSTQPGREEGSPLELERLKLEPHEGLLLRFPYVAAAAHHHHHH

Molecule	ka (human CD98 ECD) [M⁻¹ s⁻¹]	kd (human CD98 ECD) [s⁻¹]	ka [1] [M⁻¹ s⁻¹]	kd [1] [s⁻¹]	binding to human CD98 (human CD98)	Key observation for ADC solution during and after conjugation [2]	DAR by MS [2]
huAb15v1 (antibody, V domains shown) VH: EVQLVESGGGVVQPGRSLRLSCAASGFTFSDYTMAWVRQAPGKGLEWVATIIYSGRGTYYRDAVKGRFTISRDNSKSTLYLQMNSLRAEDTAVYYCARQSDHTYYYWGYFDYWGQGTMVTVSS VL: DIVMTQSPDSLAVSLGERATINCKSSQSLLFSGNQKNYLAWYQQKPGQSPKLLIYWASTRQSGVPDRFSGSGSGTDFTLTIRSLQAEDVAIYYCQQYYDVPYTFGQGTKLEIK	53000	2.3e-05	26000	2.6e-05	maintained binding	Precipitated during conjugation; inefficient conjugation	
huAb15v2 (antibody, V domains shown) VH: EVQLVESGGGVVQPGRSLRLSCAASGFTFSDYTMAWVRQAPGKGLEWVATIIYSGRGTYYRDAVKGRFTISRDNSKSTLYLQMNSLRAEDTAVYYCARQSDDTYYYWGYFDYWGQGTMVTVSS VL: DIVMTQSPDSLAVSLGERATINCKSSQSLLFSGNQKNYLAWYQQKPGQSPKLLIYWASTRQSGVPDRFSGSGSGTDFTLTIRSLQAEDVAIYYCQQYYDVPYTFGQGTKLEIK	42000	4.6e-05	21000	4.8e-05	maintained binding	Precipitated during conjugation; inefficient conjugation	2.1
huAb15v6 (antibody, V domains shown) VH: EVQLVESGGGVVQPGRSLRLSCAASGFTFSDYTMAWVRQAPGKGLEWVATIIYDARGTYYRDAVKGRFTISRDNSKSTLYLQMNSLRAEDTAVYYCARQSDDTYYYWGYFDYWGQGTMVTVSS VL: DIVMTQSPDSLAVSLGERATINCKSSQSLLFSGNQKNYLAWYQQKPGQSPKLLIYWASTRQSGVPDRFSGSGSGTDFTLTIRSLQAEDVAIYYCQQYYSSPYTFGQGTKLEIK	38000	0.00026	14000	0.00049	maintained binding	Precipitated during conjugation; inefficient conjugation	2.0
huAb15v3 (antibody, V domains shown) VH: EVQLVESGGGVVQPGRSLRLSCAASGFTFSDYTMAWVRQAPGKGLEWVATIIYSGRGTYYRDAVKGRFTISRDNSKSTLYLQMNSLRAEDTAVYYCARQSDDTYYYWGYFDYWGQGTMVTVSS VL: DIVMTQSPDSLAVSLGERATINCKSSQSLLFSGNQKNYLAWYQQKPGQSPKLLIYWASTRQSGVPDRFSGSGSGTDFTLTIRSLQAEDVAIYYCQQYYGSPYTFGQGTKLEIK	44000	8.5e-05	18000	0.00014	maintained binding	Precipitated during conjugation; inefficient conjugation	1.2
huAb15v4 (antibody, V domains shown) VH: EVQLVESGGGVVQPGRSLRLSCAASGFTFSDYTMAWVRQAPGKGLEWVATIIYTGRGTYYRDAVKGRFTISRDNSKSTLYLQMNSLRAEDTAVYYCARQSDDTYYYWGYFDYWGQGTMVTVSS VL: DIVMTQSPDSLAVSLGERATINCKSSQSLLFSGNQKNYLAWYQQKPGQSPKLLIYWASTRQSGVPDRFSGSGSGTDFTLTIRSLQAEDVAIYYCQQYYDVPYTFGQGTKLEIK	35000	2.8e-05	20000	5e-05	maintained binding	Precipitated during conjugation; inefficient conjugation	1.9
huAb15v7 (antibody, V domains shown) VH: EVQLVESGGGVVQPGRSLRLSCAASGFTFSDYTMAWVRQAPGKGLEWVATIIYDARGTYYRDAVKGRFTISRDNSKSTLYLQMNSLRAEDTAVYYCARQSDDTYYYWGYFDYWGQGTMVTVSS VL: DIVMTQSPDSLAVSLGERATINCKSSQSLLFSGNQKNYLAWYQQKPGQSPKLLIYWASTRQSGVPDRFSGSGSGTDFTLTIRSLQAEDVAIYYCQQYYGSPYTFGQGTKLEIK	35000	0.00021	14000	0.00043	maintained binding	Precipitated during conjugation; inefficient conjugation	2.2
huAb15v5 (antibody, V domains shown) VH: EVQLVESGGGVVQPGRSLRLSCAASGFTFSDYTMAWVRQAPGKGLEWVATIIYTGRGTYYRDAVKGRFTISRDNSKSTLYLQMNSLRAEDTAVYYCARQSDDTYYYWGYFDYWGQGTMVTVSS VL: DIVMTQSPDSLAVSLGERATINCKSSQSLLFSGNQKNYLAWYQQKPGQSPKLLIYWASTRQSGVPDRFSGSGSGTDFTLTIRSLQAEDVAIYYCQQYYSSPYTFGQGTKLEIK	41000	0.00013	17000	0.00018	maintained binding	Precipitated during conjugation; inefficient conjugation	1.0
